Data on one substance can be found in patent US20240209065A1.

Common to all, as to assay: cell-based or functional assay
The target of assay [1] is S protein of authentic SARS-CoV-2 G614 virus (SARS-CoV-2) (UniProt P0DTC2).
Assay [2] deals with S protein of RaTG13 on S-pseudotyped VSV (RaTG13 (clade 1b sarbecovirus)).
Assay [3] has as its target S protein of Pangolin-GD on S-pseudotyped VSV (Pangolin-GD (clade 1b sarbecovirus)).

DXP-604 IgG (antibody) displayed an IC50, microneutralization assay with authentic virus in assay [1] of 0.3 nM. The IC50, S-pseudotyped VSV neutralization assay in assay [2] worked out at 0.01 nM; in assay [3] it was 0.05 nM.
